Source: patent publication US20120058906A1 (published 2012)

Assays:
[1] = biological target: T1, rHuman HGF R/c-MET/Fc Chimera, CF (R&D Systems Cat#358-MT/CF) (human, UniProt P08581 25-932); assay: ECL (MSD Multi-Spot) binding, antigen spotted on plate; Fab 500 nM
T1 construct: Bought Fc chimera; also called HGF R/Fc; hepatocyte growth factor receptor; Fc part of the bought chimera not given

[2] = biological target: T2, rHuman IGF-1 sR, CF (R&D Systems Cat#391-GR) (human, UniProt P08069 31-932); assay: as above
T2 construct: Bought soluble receptor; also called insulin-like growth factor-1 soluble receptor; IGF-R1

[3] = biological target: T3, rHuman Erythropoietin R/Fc Chimera, CF (R&D Systems Cat#963-ER) (human, UniProt P19235 25-250); assay: as above
T3 construct: Bought Fc chimera; also called EPO R/Fc; erythropoietin receptor; Fc part of the bought chimera not given
T3 sequence: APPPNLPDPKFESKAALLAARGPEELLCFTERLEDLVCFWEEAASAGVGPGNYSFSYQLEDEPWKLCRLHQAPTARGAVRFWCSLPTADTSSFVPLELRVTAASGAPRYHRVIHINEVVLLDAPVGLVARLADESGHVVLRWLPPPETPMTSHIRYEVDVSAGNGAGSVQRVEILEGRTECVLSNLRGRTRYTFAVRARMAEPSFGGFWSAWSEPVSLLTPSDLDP

[4] = biological target: T4, rHuman P-Cadherin/Fc Chimera, CF (R&D Systems Cat#861-PC) (human, UniProt P22223 108-654); assay: as above
T4 construct: Bought Fc chimera; Fc part of the bought chimera not given

[5] = biological target: T5, rHuman ErbB2/Fc Chimera, CF (R&D Systems Cat#1129-ER) (human, UniProt P04626 23-652); assay: as above
T5 construct: Bought Fc chimera; also called human epidermal growth factor 2 receptor; HER2/neu; Fc part of the bought chimera not given

[6] = biological target: T6, rHuman CD44/Fc Chimera, CF (R&D Systems Cat#3660-CD) (human, UniProt P16070 21-220); assay: as above
T6 construct: Bought Fc chimera; Fc part of the bought chimera not given

[7] = biological target: T7, Recombinant Human DLL4 (R&D Systems Cat#1506-D4/CF) (human, UniProt Q9NR61 27-524); assay: as above
T7 construct: Bought recombinant protein; also called delta-like protein 4

[8] = biological target: T8, Recombinant Human DLL4 (R&D Systems Cat#1506-D4/CF) (human, UniProt Q9NR61 27-524); assay: MSD ECL multi-spot plate, antigen immobilized; Fab 40 nM; blank spot 518
T8 construct: Purchased recombinant protein; also called delta-like protein 4

[9] = biological target: T9, rHuman CD44/Fc Chimera, CF (R&D Systems Cat#3660-CD) (human, UniProt P16070 21-220); assay: as above
T9 construct: Purchased Fc chimera; not shown: Fc portion of the purchased chimera

[10] = biological target: T10, rHuman Erythropoietin R/Fc Chimera, CF (R&D Systems Cat#963-ER) (human, UniProt P19235 25-250); assay: as above
T10 construct: Purchased Fc chimera; also called EPO R/Fc; Epo R; not shown: Fc portion of the purchased chimera
T10 sequence: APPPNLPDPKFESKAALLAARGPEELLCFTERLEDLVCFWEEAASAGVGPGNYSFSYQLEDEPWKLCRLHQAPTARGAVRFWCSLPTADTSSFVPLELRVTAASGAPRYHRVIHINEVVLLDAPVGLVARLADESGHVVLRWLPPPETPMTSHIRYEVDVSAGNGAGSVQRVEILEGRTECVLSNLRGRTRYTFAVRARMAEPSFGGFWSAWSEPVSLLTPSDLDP

[11] = biological target: T11, rHuman P-Cadherin/Fc Chimera, CF (R&D Systems Cat#861-PC) (human, UniProt P22223 108-654); assay: as above
T11 construct: Purchased Fc chimera; not shown: Fc portion of the purchased chimera

[12] = biological target: T12, rHuman HGF R/c-MET/Fc Chimera, CF (R&D Systems Cat#358-MT/CF) (human, UniProt P08581 25-932); assay: as above
T12 construct: Purchased Fc chimera; also called HGF R/Fc; not shown: Fc portion of the purchased chimera

[13] = biological target: T13, rHuman Notch-1/Fc Chimera, CF (R&D Systems Cat#3647-TK) (human, UniProt P46531 19-526); assay: as above
T13 construct: Purchased Fc chimera; not shown: Fc portion of the purchased chimera

[14] = biological target: T14, rHuman EGF R/Fc Chimera, CF (R&D Systems Cat#344-ER) (human, UniProt P00533 25-645); assay: as above
T14 construct: Purchased Fc chimera; not shown: Fc portion of the purchased chimera

[15] = biological target: T15, rHuman ErbB2/Fc Chimera, CF (R&D Systems Cat#1129-ER) (human, UniProt P04626 23-652); assay: as above
T15 construct: Purchased Fc chimera; also called HER2/neu; not shown: Fc portion of the purchased chimera

[16] = biological target: T16, rHuman IGF-1 sR (IGF-1 sR), CF (R&D Systems Cat#391-GR) (human, UniProt P08069 31-932); assay: as above
T16 construct: Purchased soluble receptor; also called insulin-like growth factor-1 soluble receptor; IGF-R1

[17] = biological target: T17, rHuman Notch-1/Fc Chimera, CF (R&D Systems Cat#3647-TK) (human, UniProt P46531 19-526); assay: ECL (MSD Multi-Spot) binding assay, antigen spotted on plate; Fab 51 nM; blank spot 335
T17 construct: Bought Fc chimera; Fc part of the bought chimera not given

[18] = biological target: T18, rHuman IGF-1 sR (IGF-1 sR), CF (R&D Systems Cat#391-GR) (human, UniProt P08069 31-932); assay: as above
T18 construct: Bought soluble receptor; also called insulin-like growth factor-1 soluble receptor; IGF-R1

[19] = biological target: T19, rHuman Erythropoietin R/Fc Chimera, CF (R&D Systems Cat#963-ER) (human, UniProt P19235 25-250); assay: as above
T19 construct: Bought Fc chimera; also called EPO R/Fc; Epo R; Fc part of the bought chimera not given
T19 sequence: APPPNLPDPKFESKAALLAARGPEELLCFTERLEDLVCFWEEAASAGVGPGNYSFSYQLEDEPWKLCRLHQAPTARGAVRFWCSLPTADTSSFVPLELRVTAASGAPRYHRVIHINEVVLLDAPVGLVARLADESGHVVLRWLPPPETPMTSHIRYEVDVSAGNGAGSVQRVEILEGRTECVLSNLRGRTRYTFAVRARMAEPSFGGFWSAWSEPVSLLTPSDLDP
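Further: blank spot per well as comparator with Hit at signal to blank ratio of 4 or more.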

B1: Fab VH1-46_IGHD6-6*01_IGHJ1*01_S102A_S103P_S104F_H111Y & L6_IGKJ1*01 (Fab, V domains shown)
VH: QVQLVQSGAEVKKPGASVKVSCKASGYTFTSYYMHWVRQAPGQGLEWMGIINPSGGSTSYAQKFQGRVTMTRDTSTSTVYMELSSLRSEDTAVYYCAREEYAPFSAEYFQYWGQGTLVTVSS
VL: not shown
notes: Fab made in E. coli; The heavy chain also carries the CH1 with Flag and His tags of Plasmid A, and the light chain the kappa constant region of Plasmid C
ECL signal [1]: 523
ECL signal [2]: 592
ECL signal [3]: 1210
ECL signal [4]: 939
ECL signal [5]: 713
ECL signal [6]: 664
ECL signal [7]: 93100

B2: Fab VH5-51_IGHD5-18*01>3_IGHJ4*01_G100K & V3-4_IGLJ1*01 (Fab, V domains shown)
VH: EVQLVQSGAEVKKPGESLKISCKGSGYSFTSYWIGWVRQMPGKGLEWMGIIYPGDSDTRYSPSFQGQVTISADKSISTAYLQWSSLKASDTAMYYCARRKYSYGYDYFDYWGQGTLVTVSS
VL: QTVVTQEPSFSVSPGGTVTLTCGLSSGSVSTSYYPSWYQQTPGQAPRTLIYSTNTRSSGVPDRFSGSILGNKAALTITGAQADDESDYYCVLYMGSGISYVFGTGTKVTVL
notes: It was expressed as a Fab: CH1 with tags from Plasmid A and lambda CL from Plasmid E; also called Fab No. 22
ECL signal [8]: 35900 ECL signal
ECL signal [9]: 857 ECL signal
ECL signal [10]: 979 ECL signal
ECL signal [11]: 744 ECL signal
ECL signal [12]: 1310 ECL signal
ECL signal [13]: 875 ECL signal
ECL signal [14]: 1150 ECL signal
ECL signal [15]: 1390 ECL signal
ECL signal [16]: 1270 ECL signal

B3: Fab VH5-51_IGHD5-18*01>3_IGHJ4*01 & V3-4_IGLJ1*01 (Fab, V domains shown)
VH: EVQLVQSGAEVKKPGESLKISCKGSGYSFTSYWIGWVRQMPGKGLEWMGIIYPGDSDTRYSPSFQGQVTISADKSISTAYLQWSSLKASDTAMYYCARRGYSYGYDYFDYWGQGTLVTVSS
VL: QTVVTQEPSFSVSPGGTVTLTCGLSSGSVSTSYYPSWYQQTPGQAPRTLIYSTNTRSSGVPDRFSGSILGNKAALTITGAQADDESDYYCVLYMGSGISYVFGTGTKVTVL
notes: Tested as a Fab made in E. coli; also called IGHV5-51*03
ECL signal [17]: 685
ECL signal [18]: 1050
ECL signal [19]: 750
